Assay results published in the supplement of paper PMC9112550, “Optimization of the antimicrobial peptide Bac7 by deep mutational scanning” (BMC Biology, 2022).

System: Escherichia coli TOP10
Assay: shrunken log2 fold change of peptide-encoding DNA abundance (4.5 h post-induction vs induction); higher = less antimicrobial activity (less host growth inhibition)
Details: time post-induction: 4.5 h; library: site-saturation at positions 5, 18, 19, 20
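Further: peptides expressed intracellularly from a pBAD plasmid library in pooled LB shake-flask culture, induced with 0.3% L-arabinose, DNA abundance read by NGS, three biological replicates, DESeq2 with apeglm shrinkage.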

Row | Sequence | shrunken log2 fold change
1 | RRIRVRPPRLPRPRPRPSFQPRP | -0.22
2 | RRIRVRPPRLPRPRPRPSFVPRP | -0.422
3 | RRIRVRPPRLPRPRPRPSGKPRP | 0.0575
4 | RRIRVRPPRLPRPRPRPSGNPRP | -0.225
5 | RRIRVRPPRLPRPRPRPSHAPRP | -0.24
6 | RRIRVRPPRLPRPRPRPSITPRP | -0.504
7 | RRIRVRPPRLPRPRPRPSKEPRP | -0.263
8 | RRIRVRPPRLPRPRPRPSLFPRP | -0.269
9 | RRIRVRPPRLPRPRPRPSMMPRP | -0.888
10 | RRIRVRPPRLPRPRPRPSMNPRP | 0.331
11 | RRIRVRPPRLPRPRPRPSMTPRP | -0.175
12 | RRIRVRPPRLPRPRPRPSNCPRP | -0.225
13 | RRIRVRPPRLPRPRPRPSPLPRP | -0.0757
14 | RRIRVRPPRLPRPRPRPSPVPRP | 0.216
15 | RRIRVRPPRLPRPRPRPSQCPRP | -0.187
16 | RRIRVRPPRLPRPRPRPSQHPRP | -0.39
17 | RRIRVRPPRLPRPRPRPSQLPRP | -0.234
18 | RRIRVRPPRLPRPRPRPSQMPRP | -0.0502
19 | RRIRVRPPRLPRPRPRPSSQPRP | -0.0546
20 | RRIRVRPPRLPRPRPRPSTAPRP | -0.0759
21 | RRIRVRPPRLPRPRPRPSTCPRP | -0.325
22 | RRIRVRPPRLPRPRPRPSTDPRP | -0.0464
23 | RRIRVRPPRLPRPRPRPSTHPRP | -0.573
24 | RRIRVRPPRLPRPRPRPSTRPRP | 0.552
25 | RRIRVRPPRLPRPRPRPSVDPRP | -0.193

Row | Sequence | shrunken log2 fold change
26 | RRIRVRPPRLPRPRPRPSWDPRP | 0.192
27 | RRIRVRPPRLPRPRPRPSYPPRP | -0.392
28 | RRIRVRPPRLPRPRPRPTCFPRP | -0.155
29 | RRIRVRPPRLPRPRPRPTCRPRP | 0.147
30 | RRIRVRPPRLPRPRPRPTDQPRP | -0.0162
31 | RRIRVRPPRLPRPRPRPTDRPRP | -0.00137
32 | RRIRVRPPRLPRPRPRPTFAPRP | 0.294
33 | RRIRVRPPRLPRPRPRPTFCPRP | -0.0418
34 | RRIRVRPPRLPRPRPRPTFKPRP | -0.152
35 | RRIRVRPPRLPRPRPRPTGFPRP | 0.0174
36 | RRIRVRPPRLPRPRPRPTGNPRP | 2.77
37 | RRIRVRPPRLPRPRPRPTHNPRP | 0.0759
38 | RRIRVRPPRLPRPRPRPTHQPRP | 0.209
39 | RRIRVRPPRLPRPRPRPTITPRP | -0.178
40 | RRIRVRPPRLPRPRPRPTKAPRP | -0.142
41 | RRIRVRPPRLPRPRPRPTKPPRP | 0.172
42 | RRIRVRPPRLPRPRPRPTLCPRP | 0.0223
43 | RRIRVRPPRLPRPRPRPTLMPRP | 0.169
44 | RRIRVRPPRLPRPRPRPTLNPRP | -0.102
45 | RRIRVRPPRLPRPRPRPTMIPRP | 0.0351
46 | RRIRVRPPRLPRPRPRPTNGPRP | 0.239
47 | RRIRVRPPRLPRPRPRPTNKPRP | -0.254
48 | RRIRVRPPRLPRPRPRPTQDPRP | 0.386
49 | RRIRVRPPRLPRPRPRPTQKPRP | 0.837
50 | RRIRVRPPRLPRPRPRPTRDPRP | 0.472

Row | Sequence | shrunken log2 fold change
51 | RRIRVRPPRLPRPRPRPTSDPRP | 0.431
52 | RRIRVRPPRLPRPRPRPTSMPRP | -0.192
53 | RRIRVRPPRLPRPRPRPTSTPRP | -0.103
54 | RRIRVRPPRLPRPRPRPTTSPRP | 0.097
55 | RRIRVRPPRLPRPRPRPTVSPRP | -0.131
56 | RRIRVRPPRLPRPRPRPTYDPRP | -0.372
57 | RRIRVRPPRLPRPRPRPTYRPRP | -0.594
58 | RRIRVRPPRLPRPRPRPTYVPRP | 0.00864
59 | RRIRVRPPRLPRPRPRPVAKPRP | 0.233
60 | RRIRVRPPRLPRPRPRPVCEPRP | 0.206
61 | RRIRVRPPRLPRPRPRPVDAPRP | 0.485
62 | RRIRVRPPRLPRPRPRPVDNPRP | -0.663
63 | RRIRVRPPRLPRPRPRPVDRPRP | 0.257
64 | RRIRVRPPRLPRPRPRPVDVPRP | -0.106
65 | RRIRVRPPRLPRPRPRPVEVPRP | -0.0382
66 | RRIRVRPPRLPRPRPRPVFTPRP | -0.14
67 | RRIRVRPPRLPRPRPRPVGAPRP | 0.329
68 | RRIRVRPPRLPRPRPRPVGCPRP | 0.417
69 | RRIRVRPPRLPRPRPRPVGGPRP | 0.306
70 | RRIRVRPPRLPRPRPRPVGHPRP | -0.166
71 | RRIRVRPPRLPRPRPRPVHHPRP | -0.199
72 | RRIRVRPPRLPRPRPRPVHPPRP | 0.312
73 | RRIRVRPPRLPRPRPRPVHWPRP | 0.133
74 | RRIRVRPPRLPRPRPRPVIWPRP | 0.286
75 | RRIRVRPPRLPRPRPRPVKPPRP | 0.247

Row | Sequence | shrunken log2 fold change
76 | RRIRVRPPRLPRPRPRPVKVPRP | 0.0348
77 | RRIRVRPPRLPRPRPRPVLDPRP | -0.145
78 | RRIRVRPPRLPRPRPRPVLKPRP | -0.193
79 | RRIRVRPPRLPRPRPRPVLQPRP | 0.164
80 | RRIRVRPPRLPRPRPRPVLYPRP | -0.281
81 | RRIRVRPPRLPRPRPRPVNQPRP | -0.0283
82 | RRIRVRPPRLPRPRPRPVRIPRP | 0.337
83 | RRIRVRPPRLPRPRPRPVSHPRP | 0.173
84 | RRIRVRPPRLPRPRPRPVSKPRP | -0.249
85 | RRIRVRPPRLPRPRPRPVTRPRP | 0.0259
86 | RRIRVRPPRLPRPRPRPVVEPRP | -0.112
87 | RRIRVRPPRLPRPRPRPVVIPRP | -0.401
88 | RRIRVRPPRLPRPRPRPVWDPRP | 0.142
89 | RRIRVRPPRLPRPRPRPVWRPRP | 0.309
90 | RRIRVRPPRLPRPRPRPWCEPRP | -0.293
91 | RRIRVRPPRLPRPRPRPWDSPRP | -0.181
92 | RRIRVRPPRLPRPRPRPWDVPRP | -0.0177
93 | RRIRVRPPRLPRPRPRPWEEPRP | -0.317
94 | RRIRVRPPRLPRPRPRPWEIPRP | -0.00992
95 | RRIRVRPPRLPRPRPRPWFDPRP | -0.439
96 | RRIRVRPPRLPRPRPRPWFKPRP | 0.0333
97 | RRIRVRPPRLPRPRPRPWIGPRP | -0.166
98 | RRIRVRPPRLPRPRPRPWILPRP | 0.000714
99 | RRIRVRPPRLPRPRPRPWKPPRP | 0.0596
100 | RRIRVRPPRLPRPRPRPWLNPRP | -0.106

Row | Sequence | shrunken log2 fold change
101 | RRIRVRPPRLPRPRPRPWMIPRP | -0.0467
102 | RRIRVRPPRLPRPRPRPWNLPRP | -0.14
103 | RRIRVRPPRLPRPRPRPWPGPRP | 0.101
104 | RRIRVRPPRLPRPRPRPWQIPRP | 0.00686
105 | RRIRVRPPRLPRPRPRPWQRPRP | 0.0171
106 | RRIRVRPPRLPRPRPRPWRAPRP | 0.414
107 | RRIRVRPPRLPRPRPRPWRTPRP | 0.0312
108 | RRIRVRPPRLPRPRPRPWSGPRP | -0.507
109 | RRIRVRPPRLPRPRPRPWSHPRP | -0.125
110 | RRIRVRPPRLPRPRPRPWSSPRP | -1.19
111 | RRIRVRPPRLPRPRPRPWTDPRP | -0.0083
112 | RRIRVRPPRLPRPRPRPWTLPRP | 0.113
113 | RRIRVRPPRLPRPRPRPWYAPRP | -0.299
114 | RRIRVRPPRLPRPRPRPWYHPRP | -0.209
115 | RRIRVRPPRLPRPRPRPWYSPRP | -0.183
116 | RRIRVRPPRLPRPRPRPYCFPRP | -0.736
117 | RRIRVRPPRLPRPRPRPYDGPRP | -0.00822
118 | RRIRVRPPRLPRPRPRPYDHPRP | -0.347
119 | RRIRVRPPRLPRPRPRPYGAPRP | 0.162
120 | RRIRVRPPRLPRPRPRPYGSPRP | -0.409
121 | RRIRVRPPRLPRPRPRPYHPPRP | -0.406
122 | RRIRVRPPRLPRPRPRPYHSPRP | -1.02
123 | RRIRVRPPRLPRPRPRPYKTPRP | 0.0577
124 | RRIRVRPPRLPRPRPRPYKWPRP | -0.266
125 | RRIRVRPPRLPRPRPRPYLDPRP | 0.0545

Row | Sequence | shrunken log2 fold change
126 | RRIRVRPPRLPRPRPRPYMAPRP | -0.629
127 | RRIRVRPPRLPRPRPRPYMLPRP | -0.71
128 | RRIRVRPPRLPRPRPRPYMVPRP | -0.292
129 | RRIRVRPPRLPRPRPRPYNEPRP | -0.429
130 | RRIRVRPPRLPRPRPRPYNIPRP | -1.26
131 | RRIRVRPPRLPRPRPRPYPEPRP | 1.13
132 | RRIRVRPPRLPRPRPRPYPMPRP | -0.299
133 | RRIRVRPPRLPRPRPRPYPWPRP | -0.361
134 | RRIRVRPPRLPRPRPRPYQQPRP | -0.323
135 | RRIRVRPPRLPRPRPRPYQRPRP | -0.0149
136 | RRIRVRPPRLPRPRPRPYSAPRP | -0.805
137 | RRIRVRPPRLPRPRPRPYSNPRP | -0.676
138 | RRIRVRPPRLPRPRPRPYSPPRP | -0.181
139 | RRIRVRPPRLPRPRPRPYSSPRP | -0.644
140 | RRIRVRPPRLPRPRPRPYWNPRP | -0.574
141 | RRIRVRPPRLPRPRPRPYYKPRP | -0.67
142 | RRIRWRPPRLPRPRPRPAAAPRP | 1.21
143 | RRIRWRPPRLPRPRPRPAAWPRP | 0.121
144 | RRIRWRPPRLPRPRPRPACVPRP | 0.347
145 | RRIRWRPPRLPRPRPRPACYPRP | 0.443
146 | RRIRWRPPRLPRPRPRPAEKPRP | 0.192
147 | RRIRWRPPRLPRPRPRPAFCPRP | 0.143
148 | RRIRWRPPRLPRPRPRPAFRPRP | -0.015
149 | RRIRWRPPRLPRPRPRPAFVPRP | 0.139
150 | RRIRWRPPRLPRPRPRPAKAPRP | 0.747
